Experimental data: publication PMC5887453 (Nucleic Acids Research, 2018)

What was measured:
PhoEF-2 K225S = molecular target: T1, PhoEF-2 K225S (Pyrococcus horikoshii, UniProt O59521 1-732, K225S); experiment: native gel or EMSA
T1 sequence (looked up): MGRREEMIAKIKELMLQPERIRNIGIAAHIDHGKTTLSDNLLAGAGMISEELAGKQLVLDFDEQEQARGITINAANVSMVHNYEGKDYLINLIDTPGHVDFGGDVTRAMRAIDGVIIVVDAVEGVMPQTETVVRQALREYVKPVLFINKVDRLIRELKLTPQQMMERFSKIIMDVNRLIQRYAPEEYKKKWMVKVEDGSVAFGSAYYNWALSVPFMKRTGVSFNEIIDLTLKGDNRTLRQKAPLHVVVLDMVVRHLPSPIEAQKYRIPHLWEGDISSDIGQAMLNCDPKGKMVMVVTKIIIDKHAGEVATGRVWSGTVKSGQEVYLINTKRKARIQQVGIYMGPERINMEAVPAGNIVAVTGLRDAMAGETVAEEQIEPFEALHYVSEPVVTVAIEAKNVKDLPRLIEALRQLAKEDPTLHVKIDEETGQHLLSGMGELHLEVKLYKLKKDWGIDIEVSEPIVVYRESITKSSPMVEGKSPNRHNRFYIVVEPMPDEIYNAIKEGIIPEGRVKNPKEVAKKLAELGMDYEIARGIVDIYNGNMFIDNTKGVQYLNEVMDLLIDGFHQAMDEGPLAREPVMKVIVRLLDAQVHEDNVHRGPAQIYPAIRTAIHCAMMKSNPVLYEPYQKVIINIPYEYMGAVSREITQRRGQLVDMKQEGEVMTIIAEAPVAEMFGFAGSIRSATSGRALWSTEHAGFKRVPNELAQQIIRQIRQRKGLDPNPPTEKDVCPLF

PhoEF-2 N227S = molecular target: T2, PhoEF-2 N227S (Pyrococcus horikoshii, UniProt O59521 1-732, N227S); experiment: native gel or EMSA
T2 sequence (looked up): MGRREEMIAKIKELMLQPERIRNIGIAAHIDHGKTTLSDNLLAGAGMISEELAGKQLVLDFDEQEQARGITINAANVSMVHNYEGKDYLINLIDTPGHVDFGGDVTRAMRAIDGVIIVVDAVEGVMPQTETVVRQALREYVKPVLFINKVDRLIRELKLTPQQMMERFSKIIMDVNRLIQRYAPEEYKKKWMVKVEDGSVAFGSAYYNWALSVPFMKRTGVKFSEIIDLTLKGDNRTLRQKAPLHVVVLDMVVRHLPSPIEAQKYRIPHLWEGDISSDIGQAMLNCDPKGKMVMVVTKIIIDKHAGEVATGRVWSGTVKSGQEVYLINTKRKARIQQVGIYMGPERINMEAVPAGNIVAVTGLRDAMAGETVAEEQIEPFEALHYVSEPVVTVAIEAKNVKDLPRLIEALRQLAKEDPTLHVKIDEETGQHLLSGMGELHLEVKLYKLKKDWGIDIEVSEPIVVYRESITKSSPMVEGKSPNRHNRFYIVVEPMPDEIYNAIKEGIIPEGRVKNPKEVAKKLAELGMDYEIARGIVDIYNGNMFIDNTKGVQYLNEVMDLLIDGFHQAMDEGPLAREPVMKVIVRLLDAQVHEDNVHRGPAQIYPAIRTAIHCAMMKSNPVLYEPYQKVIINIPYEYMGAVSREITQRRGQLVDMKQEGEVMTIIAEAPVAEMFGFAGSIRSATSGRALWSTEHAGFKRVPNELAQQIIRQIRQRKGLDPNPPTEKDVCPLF

- binding result (PhoEF-2 K225S): binds
- binding result (PhoEF-2 N227S): binds
B1: Pyrococcus horikoshii ribosomal stalk protein P1 (natural protein, UniProt O57705 1-108, looked up)
chain: MEYVYAALLLHSVGKEINEENLKAVLQAAGVEPEEARIKALVAALEGVNIDEVIEKAAMPVAVAAAPAAAPAEAGGEEKKEEEKKEEEEKEEEVSEEEALAGLSALFG
modifications: in the SPR only: biotin on amino groups via a PEG linker (EZ-Link NHS-PEG4-Biotin)
